B1: E3 ubiquitin-protein ligase RNF26 (Homo sapiens), Q9BY78 (parent)
chain: MEAVYLVVNGLGLVLDVLTLVLDLNFLLVSSLLASLAWLLAFVYNLPHTVLTSLLHLGRGVLLSLLALIEAVVRFTCGGLQALCTLLYSCCSGLESLKLLGHLASHGALRSREILHRGVLNVVSSGHALLRQACDICAIAMSLVAYVINSLVNICLIGTQNLFSLVLALWDAVTGPLWRMTDVVAAFLAHISSSAVAMAILLWTPCQLALELLASAARLLASFVLVNLTGLVLLACVLAVTVTVLHPDFTLRLATQALSQLHARPSYHRLREDVMRLSRLALGSEAWRRVWSRSLQLASWPNRGGAPGAPQGDPMRVFSVRTRRQDTLPEAGRRSEAEEEEARTIRVTPVRGRERLNEEEPPGGQDPWKLLKEQEERKKCVICQDQSKTVLLLPCRHLCLCQACTEILMRHPVYHRNCPLCRRGILQTLNVYL
partner: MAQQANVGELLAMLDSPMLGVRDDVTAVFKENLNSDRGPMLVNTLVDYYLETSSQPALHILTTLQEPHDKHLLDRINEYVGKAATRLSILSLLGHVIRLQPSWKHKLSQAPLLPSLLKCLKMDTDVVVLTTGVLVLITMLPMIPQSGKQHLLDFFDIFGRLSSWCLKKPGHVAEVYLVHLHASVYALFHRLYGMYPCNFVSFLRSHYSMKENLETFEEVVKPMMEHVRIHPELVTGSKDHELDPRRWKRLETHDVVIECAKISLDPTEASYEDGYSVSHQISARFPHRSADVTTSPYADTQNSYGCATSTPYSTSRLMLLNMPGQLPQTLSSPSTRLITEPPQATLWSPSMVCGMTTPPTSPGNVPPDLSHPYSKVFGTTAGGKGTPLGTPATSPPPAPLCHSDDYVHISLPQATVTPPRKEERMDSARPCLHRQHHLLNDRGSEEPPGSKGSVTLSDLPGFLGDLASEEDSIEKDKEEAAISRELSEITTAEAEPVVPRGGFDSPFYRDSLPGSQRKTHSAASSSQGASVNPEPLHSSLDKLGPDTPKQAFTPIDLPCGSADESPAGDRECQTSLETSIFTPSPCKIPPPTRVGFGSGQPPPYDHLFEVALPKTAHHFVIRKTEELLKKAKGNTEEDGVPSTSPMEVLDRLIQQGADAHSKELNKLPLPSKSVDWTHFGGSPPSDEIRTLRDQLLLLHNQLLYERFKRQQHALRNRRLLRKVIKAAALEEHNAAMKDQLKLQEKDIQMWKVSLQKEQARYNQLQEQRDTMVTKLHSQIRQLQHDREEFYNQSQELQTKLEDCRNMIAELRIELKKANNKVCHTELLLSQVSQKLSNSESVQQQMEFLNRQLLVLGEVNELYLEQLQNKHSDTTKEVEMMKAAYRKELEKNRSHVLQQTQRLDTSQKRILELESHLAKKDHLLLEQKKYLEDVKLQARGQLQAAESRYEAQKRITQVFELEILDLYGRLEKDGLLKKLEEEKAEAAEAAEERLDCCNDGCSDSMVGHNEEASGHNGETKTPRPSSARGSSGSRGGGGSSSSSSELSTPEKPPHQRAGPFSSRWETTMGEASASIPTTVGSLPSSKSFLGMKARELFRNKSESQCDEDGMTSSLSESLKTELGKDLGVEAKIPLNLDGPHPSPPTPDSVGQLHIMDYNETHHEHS

Variants of: B1
Details: with tsc1_human TSC1, Q92574

Row | Variant | effect of a mutation on the interaction
1 | T348D | increasing interaction

Variants of: B1
Details: with tsc1_human TSC1, Q92574
Remark: another data set of the same source

Row | Variant | effect of a mutation on the interaction
2 | T348A | decreasing interaction
